The target of assay [1] is vWF on calcium ionophore-activated HUVEC monolayers (human (endogenous in HUVEC)). Briefly: bacterial adhesion to cell monolayers (ELISA-type); ionophore-treated HUVEC monolayers incubated for 1 h with S. aureus SH1000 WT or isdB mutant (with or without 250 ng/well mAb 6D1 or isotype control), or with L. lactis with pNZ8037::isdB or empty vector.
The target of assay [2] is human von Willebrand factor (human) (UniProt P04275). The assay can be described thus: ELISA; competition: wells coated with 1 μg of vWF, 1 μg of IsdB with or without 10 μg/well of each vWF ligand; detected with anti-IsdB IgG; percent of control without competitor.
For assay [3], the target named is IsdB NEAT1 (aa residues 144-270) (S. aureus SH1000) (UniProt Q2FZF0). The assay can be described thus: SPR; Biacore X-100; 6xHis-IsdB proteins captured on Ni2+-NTA chip, A1 lacking the 6xHis tag as analyte (0.08 to 1.25 μM), single-cycle mode, 25 °C; heterogeneous ligand binding model (two ligand populations L1, L2); buffer PBS with 0.005% Tween 20 or HBS-EP+ (methods).

The target in assay [4] is IsdB NEAT1-NEAT2 (aa residues 48-480) (S. aureus SH1000) (UniProt Q2FZF0). Described as above.
Assay [5] concerns the target IsdB NEAT2 (aa residues 334-458) (S. aureus SH1000) (UniProt Q2FZF0). The assay is described as above.

As for “IsdB on S. aureus SH1000 cells (from UniProt Q2FZF0 41-613) (natural protein)”, in assay [1], the adhesion of wild-type cells over isdB mutant cells was found to be 3 times.

In the case of collagen type IV (complex), the reduction of IsdB NEAT1-NEAT2 binding to vWF at 10 μg/well in assay [2] amounted to 50%.

collagen type VI (complex): in assay [2], the reduction of IsdB NEAT1-NEAT2 binding to vWF at 10 μg/well worked out at 50%.

For the substance “recombinant vWF A1 domain lacking the 6xHis tag (domain or fragment)”, the KD1 (ligand population L1) in assay [3] was 53 µM; in assay [4] it was 1.7 µM; in assay [5] it was 0.3 µM. The results for the KD2 (ligand population L2) in assay [3], in assay [4] and in assay [5] were 5.3 µM, 0.9 µM and 0.4 µM, respectively.
